Data on one substance can be found in publication PMC11100808.

As usually defined, the Kd is a measure of binding affinity in units of concentration. Lower therefore signals a tighter complex.

For this assay, the target named is biotinylated human CK1δ catalytic domain (CK1δ ΔC) (human) (UniProt P48730). Description: BLI. (In general: BLI is a label-free optical method that tracks binding on a fibre tip over time.)

For the substance “LIN-42 CK1BD + Tail (from UniProt Q65ZG8 402-597) (domain or fragment)”, the Kd came to 209 nM.
